Publication PMC8163081 (Science Advances, 2021)
Values belong to the molecule of their own block, whether it stands above or below them.

Assays:
[1] = target: hd-α-actinin-2 (human) (UniProt P35609); assay: SEC-MALS
[2] = target: hd-α-actinin-2 (human) (UniProt P35609); assay: ITC
[3] = target: α-actinin-2 (human) (UniProt P35609); assay: ITC
[4] = target: T1, α-actinin-2 (human, UniProt P35609 1-894); assay: SEC-MALS
[5] = target: human (nonmuscle) α-actinin-1 (human, UniProt P12814 1-892); assay: SEC-MALS
[6] = target: rod-α-actinin-2 (human, UniProt P35609 274-746); assay: SEC-MALS
[7] = target: T1, α-actinin-2; assay: ITC
[8] = target: α-actinin-2-yellow fluorescent protein (YFP) (human, UniProt P35609 1-894); assay: FRET or BRET
[9] = target: T1, α-actinin-2; assay: peptide or protein array

Sequence of hd-α-actinin-2 (human) (P35609 19-894): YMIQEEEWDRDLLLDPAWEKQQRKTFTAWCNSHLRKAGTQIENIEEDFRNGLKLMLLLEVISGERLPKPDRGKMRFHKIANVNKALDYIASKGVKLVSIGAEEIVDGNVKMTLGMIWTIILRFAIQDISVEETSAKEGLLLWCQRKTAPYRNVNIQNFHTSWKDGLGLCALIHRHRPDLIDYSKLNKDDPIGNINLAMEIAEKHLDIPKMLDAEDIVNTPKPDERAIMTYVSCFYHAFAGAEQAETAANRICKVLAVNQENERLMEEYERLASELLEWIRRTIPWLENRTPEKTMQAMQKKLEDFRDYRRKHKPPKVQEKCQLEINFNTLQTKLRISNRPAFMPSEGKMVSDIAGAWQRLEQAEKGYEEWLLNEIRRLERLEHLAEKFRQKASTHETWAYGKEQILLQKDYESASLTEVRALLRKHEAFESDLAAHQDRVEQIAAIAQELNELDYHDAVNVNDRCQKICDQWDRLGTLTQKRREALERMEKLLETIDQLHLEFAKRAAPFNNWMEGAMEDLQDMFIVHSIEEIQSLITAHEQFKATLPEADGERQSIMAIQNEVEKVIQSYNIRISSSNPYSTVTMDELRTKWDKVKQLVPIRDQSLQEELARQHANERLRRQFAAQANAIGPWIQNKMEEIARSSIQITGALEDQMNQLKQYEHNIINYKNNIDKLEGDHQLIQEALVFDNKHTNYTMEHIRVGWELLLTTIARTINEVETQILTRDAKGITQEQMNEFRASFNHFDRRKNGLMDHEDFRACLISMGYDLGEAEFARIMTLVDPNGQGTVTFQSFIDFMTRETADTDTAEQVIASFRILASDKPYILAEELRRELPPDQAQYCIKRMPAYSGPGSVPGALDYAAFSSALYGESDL
T1 sequence (P35609 whole entry): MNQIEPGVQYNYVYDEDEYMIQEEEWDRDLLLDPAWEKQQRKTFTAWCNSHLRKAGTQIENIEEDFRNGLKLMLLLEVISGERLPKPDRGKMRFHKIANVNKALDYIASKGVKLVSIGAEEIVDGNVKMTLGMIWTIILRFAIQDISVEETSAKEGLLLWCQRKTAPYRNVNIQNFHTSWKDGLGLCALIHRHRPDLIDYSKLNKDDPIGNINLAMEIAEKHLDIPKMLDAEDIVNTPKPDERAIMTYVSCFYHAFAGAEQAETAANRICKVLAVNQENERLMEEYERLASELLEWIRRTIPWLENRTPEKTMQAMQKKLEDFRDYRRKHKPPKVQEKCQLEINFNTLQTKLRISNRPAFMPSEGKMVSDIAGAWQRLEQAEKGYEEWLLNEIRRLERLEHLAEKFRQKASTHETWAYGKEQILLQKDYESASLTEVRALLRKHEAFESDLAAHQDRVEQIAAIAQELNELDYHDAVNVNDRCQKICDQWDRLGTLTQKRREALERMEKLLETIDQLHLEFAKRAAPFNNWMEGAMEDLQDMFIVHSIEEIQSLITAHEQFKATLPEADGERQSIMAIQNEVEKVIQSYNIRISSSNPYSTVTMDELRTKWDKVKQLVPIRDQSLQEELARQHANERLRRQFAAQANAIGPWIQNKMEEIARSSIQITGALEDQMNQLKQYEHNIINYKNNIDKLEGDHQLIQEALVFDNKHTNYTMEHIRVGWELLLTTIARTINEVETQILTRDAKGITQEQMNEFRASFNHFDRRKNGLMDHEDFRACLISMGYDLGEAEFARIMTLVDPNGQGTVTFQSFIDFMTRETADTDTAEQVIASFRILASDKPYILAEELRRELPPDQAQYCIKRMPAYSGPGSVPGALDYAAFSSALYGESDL
Sequence of α-actinin-2 (human) (P35609 whole entry): as above
Sequence of α-actinin-2-yellow fluorescent protein (YFP) (P35609 whole entry): as above
Sequence of human (nonmuscle) α-actinin-1 (P12814 whole entry): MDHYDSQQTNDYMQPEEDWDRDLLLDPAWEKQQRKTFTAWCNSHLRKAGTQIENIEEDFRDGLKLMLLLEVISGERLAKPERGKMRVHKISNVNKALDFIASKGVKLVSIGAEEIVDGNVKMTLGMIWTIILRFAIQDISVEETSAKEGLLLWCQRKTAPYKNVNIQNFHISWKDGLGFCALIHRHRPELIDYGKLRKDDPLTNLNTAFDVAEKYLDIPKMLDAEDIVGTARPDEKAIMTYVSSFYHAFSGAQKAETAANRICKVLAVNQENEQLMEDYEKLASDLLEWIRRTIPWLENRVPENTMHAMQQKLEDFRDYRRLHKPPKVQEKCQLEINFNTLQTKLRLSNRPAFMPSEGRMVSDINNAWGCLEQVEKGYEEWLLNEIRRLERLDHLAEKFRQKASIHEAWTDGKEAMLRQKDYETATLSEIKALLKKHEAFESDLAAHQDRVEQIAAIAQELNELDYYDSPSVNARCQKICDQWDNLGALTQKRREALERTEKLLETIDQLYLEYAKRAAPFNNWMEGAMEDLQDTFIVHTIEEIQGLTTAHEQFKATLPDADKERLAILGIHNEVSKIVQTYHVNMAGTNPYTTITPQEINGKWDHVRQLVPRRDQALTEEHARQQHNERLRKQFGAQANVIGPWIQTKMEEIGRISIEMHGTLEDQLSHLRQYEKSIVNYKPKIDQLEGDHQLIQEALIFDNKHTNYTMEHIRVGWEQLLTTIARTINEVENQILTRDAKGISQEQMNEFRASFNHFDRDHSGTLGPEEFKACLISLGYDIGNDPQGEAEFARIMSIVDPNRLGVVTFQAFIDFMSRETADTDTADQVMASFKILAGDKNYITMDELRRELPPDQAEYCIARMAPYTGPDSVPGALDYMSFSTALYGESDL
Sequence of rod-α-actinin-2 (P35609 274-746): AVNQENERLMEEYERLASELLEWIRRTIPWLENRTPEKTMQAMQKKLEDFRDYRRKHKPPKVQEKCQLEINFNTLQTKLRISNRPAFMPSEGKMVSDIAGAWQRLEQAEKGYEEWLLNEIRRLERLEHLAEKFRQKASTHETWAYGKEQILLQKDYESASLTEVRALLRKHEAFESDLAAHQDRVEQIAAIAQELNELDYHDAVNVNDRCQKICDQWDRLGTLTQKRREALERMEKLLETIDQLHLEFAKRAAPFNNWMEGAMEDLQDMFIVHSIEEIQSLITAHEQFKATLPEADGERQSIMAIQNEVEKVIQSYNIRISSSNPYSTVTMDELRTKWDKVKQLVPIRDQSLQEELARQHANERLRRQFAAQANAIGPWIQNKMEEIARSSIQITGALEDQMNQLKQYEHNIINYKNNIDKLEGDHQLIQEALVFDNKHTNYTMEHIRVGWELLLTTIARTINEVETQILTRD

Molecule: trx-Δ91-FATZ-1 (domain or fragment)
Kd [3]: 1.5 µM
stoichiometry N [3]: 1.3

Molecule: Δ91-FATZ-1-trx (domain or fragment)
Kd1 (two-site binding model, first binding event) [3]: 7.8 nM
Kd2 (two-site binding model, second binding event) [3]: 408 nM

B3: ECFP-tagged FATZ-1 (WT FATZ-1) (natural protein, human, UniProt Q9NP98 1-299, looked up)
chain: MPLSGTPAPNKKRKSSKLIMELTGGGQESSGLNLGKKISVPRDVMLEELSLLTNRGSKMFKLRQMRVEKFIYENHPDVFSDSSMDHFQKFLPTVGGQLGTAGQGFSYSKSNGRGGSQAGGSGSAGQYGSDQQHHLGSGSGAGGTGGPAGQAGRGGAAGTAGVGETGSGDQAGGEGKHITVFKTYISPWERAMGVDPQQKMELGIDLLAYGAKAELPKYKSFNRTAMPYGGYEKASKRMTFQMPKFDLGPLLSEPLVLYNQNLSNRPSFNRTPIPWLSSGEPVDYNVDIGIPLDGETEEL
FRET ratio [8]: 0.085

Molecule: PKYKSFNRTAMPYGGYEKASKRMTF (peptide, UniProt Q9NP98 216-240, looked up) [LM2 peptide]
Kd [7]: 0.315 µM
stoichiometry N [7]: 1.9

B4: FATZ-3 (natural protein, human, UniProt Q8TDC0 1-251, looked up)
chain: MIPKEQKGPVMAAMGDLTEPVPTLDLGKKLSVPQDLMMEELSLRNNRGSLLFQKRQRRVQKFTFELAASQRAMLAGSARRKVTGTAESGTVANANGPEGPNYRSELHIFPASPGASLGGPEGAHPAAAPAGCVPSPSALAPGYAEPLKGVPPEKFNHTAISKGYRCPWQEFVSYRDYQSDGRSHTPSPNDYRNFNKTPVPFGGPLVGGTFPRPGTPFIPEPLSGLELLRLRPSFNRVAQGWVRNLPESEEL
stoichiometry N [4]: 2 FATZ molecules per α-actinin-2 dimer

B5: FATZ-2 (natural protein, human, UniProt Q9NPC6 1-264, looked up)
chain: MLSHNTMMKQRKQQATAIMKEVHGNDVDGMDLGKKVSIPRDIMLEELSHLSNRGARLFKMRQRRSDKYTFENFQYQSRAQINHSIAMQNGKVDGSNLEGGSQQAPLTPPNTPDPRSPPNPDNIAPGYSGPLKEIPPEKFNTTAVPKYYQSPWEQAISNDPELLEALYPKLFKPEGKAELPDYRSFNRVATPFGGFEKASRMVKFKVPDFELLLLTDPRFMSFVNPLSGRRSFNRTPKGWISENIPIVITTEPTDDTTVPESEDL
stoichiometry N [4]: 2 FATZ molecules per α-actinin-2 dimer

Molecule: KYKSFNRTAMPYGGY (peptide, UniProt Q9NP98 217-231, looked up) [FATZ-1 peptide comprising residues 217 to 231 (peptide array)]
binding result [9]: binds

More lines, now with the values ahead:

stoichiometry N (Δ91-FATZ-1 per hd-α-actinin-2) [1]: 1
Kd [2]: 0.26 µM
stoichiometry N (Δ91-FATZ-1 per hd-α-actinin-2) [2]: 1
Molecule: Δ91-FATZ-1 (from UniProt Q9NP98 92-299) (domain or fragment)

stoichiometry N [4]: 2 Δ91-FATZ-1 per α-actinin-2 dimer
stoichiometry N [5]: 2 Δ91-FATZ-1 per α-actinin-1 (2:1 complex)
stoichiometry N [6]: 2 Δ91-FATZ-1 per rod-α-actinin-2 dimer
dH (first binding event) [7]: -111 kJ/mol
B1: Δ91-FATZ-1 (domain or fragment, human, UniProt Q9NP98 92-299, looked up)
chain: PTVGGQLGTAGQGFSYSKSNGRGGSQAGGSGSAGQYGSDQQHHLGSGSGAGGTGGPAGQAGRGGAAGTAGVGETGSGDQAGGEGKHITVFKTYISPWERAMGVDPQQKMELGIDLLAYGAKAELPKYKSFNRTAMPYGGYEKASKRMTFQMPKFDLGPLLSEPLVLYNQNLSNRPSFNRTPIPWLSSGEPVDYNVDIGIPLDGETEEL

stoichiometry N [4]: 2 FATZ molecules per α-actinin-2 dimer
B2: FATZ-1 (filamin-, α-actinin-, and telethonin-binding protein of the Z-disk) (natural protein, human, UniProt Q9NP98 1-299, looked up)
chain: B3 chain

FRET ratio [8]: 0.087
B6: ECFP-tagged FATZ-2 (WT) (natural protein, human, UniProt Q9NPC6 1-264, looked up)
chain: B5 chain
